Test results reported in article PMC9731866 (The Journal of Biological Chemistry, 2022).

Biological target: the molecule itself
Experiment: SEC-MALS; low concentration (1 mg/ml); Superdex 200 10/300 GL, 24 °C, 10 mM Hepes pH 7.4, 200 mM NaCl, 5 mM β-ME; N counts the units (heterodimers or heterotetramers) in the oligomer

B1: αMγ heterodimer of HsIDH3 (α-Q139A with γ) (complex, human)
chain 1: TGGVQTVTLIPGDGIGPEISAAVMKIFDAAKAPIQWEERNVTAIQGPGGKWMIPSEAKESMDKNKMGLKGPLKTPIAAGHPSMNLLLRKTFDLYANVRPCVSIEGYKTPYTDVNIVTIRENTEGEYSGIEHVIVDGVVASIKLITEGASKRIAEFAFEYARNNHRSNVTAVHKANIMRMSDGLFLQKCREVAESCKDIKFNEMYLDTVCLNMVQDPSQFDVLVMPNLYGDILSDLCAGLIGGLGVTPSGNIGANGVAIFESVHGTAPDIAGKDMANPTALLLSAVMMLRHMGLFDHAARIEAACFATIKDGKSLTKDLGGNAKCSDFTEEICRRVKDLD
chain 2: FSEQTIPPSAKYGGRHTVTMIPGDGIGPELMLHVKSVFRHACVPVDFEEVHVSSNADEEDIRNAIMAIRRNRVALKGNIETNHNLPPSHKSRNNILRTSLDLYANVIHCKSLPGVVTRHKDIDILIVRENTEGEYSSLEHESVAGVVESLKIITKAKSLRIAEYAFKLAQESGRKKVTAVHKANIMKLGDGLFLQCCREVAARYPQITFENMIVDNTTMQLVSRPQQFDVMVMPNLYGNIVNNVCAGLVGGPGLVAGANYGHVYAVFETATRNTGKSIANKNIANPTATLLASCMMLDHLKLHSYATSIRKAVLASMDNENMHTPDIGGQGTTSEAIQDVIRHIRVINGRAVEA
notes: α subunit of human IDH3 (HsIDH3), Q139A; γ subunit of human IDH3 (HsIDH3); One α and one γ chain; the heterodimer is the unit that associates into the (αMγ)2 heterotetramer; also called α_(Q139A)γ; mutant αγ heterodimer; source: E. coli BL21 (DE3) Codon-Plus, co-expressed from pQlinkN-α-γ-tev-His6, purified (Ni-NTA, TEV cleavage, gel filtration); not shown: His6, C-terminal, cleaved
stoichiometry N: 2
